Read-outs that look alike come from different tables or passages of the source.
Columns and labels:
[1] = biological target: Dns136-α-synuclein (Y136C, dansyl-labelled) (human) (UniProt P37840); test: other fluorescence titration
[2] = biological target: Dns100-α-synuclein (L100C, dansyl-labelled) (human) (UniProt P37840); test: other fluorescence titration
[3] = biological target: Dns136-α-synuclein (Y136C, dansyl-labelled) (human) (UniProt P37840); test: other fluorescence titration; remark: listed apart in the source
[4] = biological target: α-synuclein peptide residues 118–140 containing C136, dansyl-labelled (DnsC23) (human) (UniProt P37840); test: other fluorescence titration
[5] = biological target: Dns100-α-synuclein (L100C, dansyl-labelled) (human) (UniProt P37840); test: other fluorescence titration; remark: listed apart in the source
[6] = biological target: Dns100-α-synuclein (L100C, dansyl-labelled) (human) (UniProt P37840); test: FRET or BRET
[7] = biological target: Dns136-α-synuclein (Y136C, dansyl-labelled) (human) (UniProt P37840); test: FRET or BRET
[8] = biological target: Dns136-α-synuclein (Y136C, dansyl-labelled) (human) (UniProt P37840); test: other fluorescence titration; remark: listed apart in the source

## glucocerebrosidase (taliglucerase alfa, recombinant GCase) (from UniProt P04062 40-533) (enzyme)
[1]
  Kd: 11 µM
[2]
  Kd: 40 µM
[3]
  Kd: 8 µM
[4]
  Kd: 2 µM
[5]
  Kd: 1 µM
[6]
  <λ> shift: 2 nm
[7]
  <λ> shift: 6 nm
[8]
  Kd: 1 µM

— paper PMC3552326
